# Data reported in patent publication US6835382B2, “Ii peptide therapeutics to enhance antigen presentation” (University of Massachusetts, priority 1996, dated 2004).
# Non-standard residues stand in square brackets, D forms with d. hArg = N=C(N)NCCCC[C@H](N)C(=O)O; Cit = NC(=O)NCCC[C@H](N)C(=O)O
# Target: T1, murine E^d MHC class II allele (Mus musculus, UniProt P01904+P01915)
# T1 sequence (P01904 26-255): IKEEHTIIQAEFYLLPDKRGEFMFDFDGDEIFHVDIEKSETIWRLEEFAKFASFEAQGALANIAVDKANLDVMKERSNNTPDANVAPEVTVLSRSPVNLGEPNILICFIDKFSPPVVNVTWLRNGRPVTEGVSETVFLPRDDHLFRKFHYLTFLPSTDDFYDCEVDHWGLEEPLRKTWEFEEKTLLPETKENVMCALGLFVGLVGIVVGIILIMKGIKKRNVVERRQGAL
# T1 sequence (P01915 27-264 limits assumed): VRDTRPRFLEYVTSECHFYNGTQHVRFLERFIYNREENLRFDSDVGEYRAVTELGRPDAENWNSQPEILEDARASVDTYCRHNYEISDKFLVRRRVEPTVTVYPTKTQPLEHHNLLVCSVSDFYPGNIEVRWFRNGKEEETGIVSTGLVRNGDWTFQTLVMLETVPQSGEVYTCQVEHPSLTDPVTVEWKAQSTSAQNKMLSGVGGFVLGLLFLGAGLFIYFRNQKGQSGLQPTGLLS
# Assay: processed antigen assay, E^d allele (APC pulsed with native HEL)
# Type: cell-based
# Design: The A20 and CH27 B cell lymphoma lines express H-2^d and H-2^k alleles, respectively; endogenous in cells; host or cells: A20 B cell lymphoma (mitomycin C-treated or paraformaldehyde-fixed)
# Conditions: AE peptide 64 μM; for T cell response relative to baseline (None = 1.00), E^d: Table 31; for T cell response relative to baseline (None = 1.0), 5 μM HEL E^d, first value / T cell response relative to baseline (None = 1.0), 5 μM HEL E^d, second value / T cell response relative to baseline (None = 1.0), 10 μM HEL E^d, first value / T cell response relative to baseline (None = 1.0), 10 μM HEL E^d, second value / T cell response relative to baseline (None = 1.0), 20 μM HEL E^d, first value / T cell response relative to baseline (None = 1.0), 20 μM HEL E^d, second value: Table 29; for T cell response relative to baseline (None = 1.0), 5 μM HEL E^d, first value / T cell response relative to baseline (None = 1.0), 5 μM HEL E^d, second value: native HEL prepulse 5 μM; for T cell response relative to baseline (None = 1.0), 5 μM HEL E^d, first value / T cell response relative to baseline (None = 1.0), 10 μM HEL E^d, first value / T cell response relative to baseline (None = 1.0), 20 μM HEL E^d, first value: supernatant dilution 1:4 (first value); for T cell response relative to baseline (None = 1.0), 5 μM HEL E^d, second value / T cell response relative to baseline (None = 1.0), 10 μM HEL E^d, second value / T cell response relative to baseline (None = 1.0), 20 μM HEL E^d, second value: supernatant dilution 1:8 (second value)
# Procedure: In a third type of assay, the “processed antigen assay”, certain of the AE101 series of peptides inhibit stimulation of specific T cell hybridomas by antigenic peptides which are derived from the endogenous processing of a native protein antigen. This assay, which is related to the peptide prepulse assay, is performed by incubating APC with native protein antigen for 8 h, after which the pulsed APC are washed and treated with mitomycin C. Those pulsed APC are then combined with AE101 series peptides and T cell hybridomas and are incubated for 24 h. After that incubation, an aliquot of the culture supernatant is transferred to a second culture to measure T cell stimulation, as reflected in the effect of released interleukins on the growth of an interleukin-dependent, indicator cell line. During the 8 h incubation with native protein antigen, the protein antigen is taken into the APC. The native protein enters the processing pathway within the APC, where it is enzymatically cleaved to peptide fragments. Those peptide fragments with high affinity for the particular MHC class II molecules produced by the APC form antigenic peptide/MHC class II complexes which are transported to the cell surface. At the cell surface, the MHC class II molecules are contacted by the AE101 peptides, which cause the release of the antigenic peptide by the same mechanism proposed for the “peptide prepulse” assay above.
# The “processed antigen assay” was carried out under essentially the same conditions as the “peptide prepulse assay”, with the following modifications. Untreated APC were incubated at 1×10^6/mL in 24-well plates (1 mL/well) with native protein antigen for 8 h. Following that incubation, the pulsed APC were washed, treated with mitomycin C, and washed again. AE101 series peptide was added at 64 μM, 16 μM, 4 μM, and 1 μM concentrations for 24 h in the presence of the T cell hybridoma specific for the antigenic peptide. Interleukin release from these cultures was measured by proliferation of HT-2 cells to interleukins in supernatants transferred from the primary culture. The baseline T cell response was measured by culturing T hybridoma cells with the native antigen-prepulsed APC in the absence of AE101 series peptides.
# The “processed antigen assay” was carried out under essentially the same conditions as the “peptide prepulse” assay, with the following modifications. Untreated APC were incubated at 1×10^6/mL in 24-well plates (1 mL/well) with native protein antigen for 8 h. Following incubation, the pulsed APC were washed, treated with mitomycin C, and were washed again. The assay conditions were then as described for “peptide prepulse” above. The baseline T cell response was measured by culturing T hybridoma cells with the native antigen-prepulsed APC in the absence of AE101 peptides.
# Table 2.9: Activities of substitution series at Leucine^80 in AE114 in a processed antigen assay. […] The results in this assay constitute, relatively, a mirror image of the result in the simultaneous assay (Example 1, Table 7) and parallel those of the antigenic peptide prepulse assay (Example 5, Table 24). Untreated APC were incubated with native HEL, instead of antigenic peptide, for 8 h. After incubation, the pulsed cells were washed and mitomycin C treated before being cocultured with AE-peptides and T cell hybridomas. Wells containing only T cells and native HEL-prepulsed APC were used to determine the Baseline response, or 1, in the absence of AE peptides. The concentration of AE peptide used was 64 μM for these assays. The supernatant dilutions used in the HT-2 cell assay were 1:4 (first value) and 1:8 (second value).
# [1] = native HEL prepulse 10 μM, supernatant dilution 1:4
# [2] = Table 30, native HEL prepulse 10 μM, supernatant dilution 1:8
# [3] = Table 32, native HEL prepulse 20 μM, supernatant dilution 1:4
Substance,"T cell response relative to baseline (None = 1.00), E^d [1]","T cell response relative to baseline (None = 1.0), 5 μM HEL E^d, first value","T cell response relative to baseline (None = 1.0), 5 μM HEL E^d, second value","T cell response relative to baseline (None = 1.0), 10 μM HEL E^d, first value (native HEL prepulse 10 μM)","T cell response relative to baseline (None = 1.0), 10 μM HEL E^d, second value (native HEL prepulse 10 μM)","T cell response relative to baseline (None = 1.0), 20 μM HEL E^d, first value (native HEL prepulse 20 μM)","T cell response relative to baseline (None = 1.0), 20 μM HEL E^d, second value (native HEL prepulse 20 μM)","T cell response relative to baseline (None = 1.0), E^d [3]",further results
Ac-LRLK HArg PK-NH2 [AE341],0.12,–,–,–,–,–,–,–,–
Ac-ARNKNPK-NH2 [AE346],0.78,–,–,–,–,–,–,–,–
Ac-LRLKyPK-NH2 [AE308],–,–,–,–,–,–,–,–,"T cell response relative to baseline (None = 1.0), E^d [2]: 0.60"
Ac-LRMK H PK-NH2 (Ac-LRMKHPK-NH2) [AE228],–,"0.35,",0.45,"0.41,",0.41,"0.71,",0.61,–,–
Ac-LRMK K PK-NH2 (Ac-LRMKKPK-NH2) [AE229],–,"0.38,",0.58,"0.55,",0.49,"0.71,",0.62,–,–
Ac-LRMK Y PK-NH2 (Ac-LRMKYPK-NH2; not fully specified; printed as Ac-LRMK Y PK-NH2) [AE235],0.53,"0.33,",0.38,"0.42,",0.39,"0.71,",0.56,0.46,"T cell response relative to baseline (None = 1.0), E^d [2]: 0.19; T cell response relative to baseline (None = 1.0), E^d (Table 33, native HEL prepulse 10 μM, supernatant dilution 1:8): 0.45; Activity in processed antigen assay, E^d (baseline = 1.0) (Table 34, native HEL 10 μM prepulse, supernatant 1:8): 0.19"
Ac-LRMK HArg PK-NH2 (Ac-LRMK[hArg]PK-NH2; SMILES CSCC[C@H](NC(=O)[C@H](CCCNC(=N)N)NC(=O)[C@H](CC(C)C)NC(C)=O)C(=O)N[C@@H](CCCCN)C(=O)N[C@@H](CCCCNC(=N)N)C(=O)N1CCC[C@H]1C(=O)N[C@@H](CCCCN)C(N)=O) [AE227],0.35,"0.18,",0.33,"0.18,",0.19,"0.45,",0.36,–,–
Ac-LR HArg KLPK-NH2 [AE197],–,–,–,–,–,–,–,0.45,–
Ac-LRLKWPK-NH2 [AE309],0.44,–,–,–,–,–,–,0.55,"T cell response relative to baseline (None = 1.0), E^d [2]: 0.29"
Ac-LRMKLP[Cit]-NH2 [AE241],–,–,–,–,–,–,–,0.63,–
Ac-LRMK Q PK-NH2 (Ac-LRMKQPK-NH2) [AE233],–,"0.48,",0.36,"0.53,",0.47,"0.74,",0.68,–,–
Ac-LRMKLP N-NH2 (Ac-LRMKLPN-NH2) [AE246],–,–,–,–,–,–,–,0.72,–
